Tests used:
Format in all cases: cell-based
IP-10 = target: T1, IP-10 (Homo sapiens, UniProt P02778); assay: In vitro T cell adhesion to VCAM-1 induced by IP-10 under shear flow; settings: for Inhibition of chemokine-dependent T cell adhesion: IP-10: 10 μg/ml peptide, T cells on VCAM-1 under shear flow
T1 construct: purchased PeproTech
T1 sequence (P02778 22-98): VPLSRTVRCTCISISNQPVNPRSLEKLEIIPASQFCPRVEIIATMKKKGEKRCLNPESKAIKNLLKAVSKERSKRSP
Description: (§1) 50 ml of blood was added to 10 ml of a solution of Dextran T-500 (6% w/v) in PBS (phosphate buffer saline), and 7 ml of citrate buffer (25 grams citrate, 8 grams citric acid in 500 ml PBS). The solution was incubated for 30 minutes at 25° C. 10 ml of Ficoll 1077 was added to the bottom of the tube. The tube was then centrifuged at 2,000 rotations per minute for 30 minutes at 18° C. (with the brake mode of the centrifuge off). The interphase was collected and washed twice with 8 ml PBS with 5% FCS (fetal calf serum), followed by centrifugation at 1,400 rotations per minute for 5 minutes at 18° C. The cells were re-suspended in PBS with 5% FCS at a concentration less then 10^8 per ml. 2 ml of the cell solution were applied on a poly(methyl methacrylate) nylon wool column which was pre-soaked in PBS-5% FCS, and then incubated for 45 minutes at 25° C. Each column was washed with 8 ml PBS-5% FCS and the cells (T-cells and erythrocytes) were eluted by 50 ml of 5 mM EDTA (ethylenediaminetetraacetic acid) in PBS. A red pellet was obtained by centrifugation at 1,400 rotations per minute for 5 minutes at 4° C. (with the brake on).
(§2) In order to perform lysis of the erythrocytes, the red pellet was re-suspended in 5 ml of lysis-buffer (155 mM NH4Cl, 10 mM KHCO3, 0.1 mM EDTA, X0.1 PBS) for 4 minutes, followed by immediate addition of 50 ml of PBS with EDTA. Following centrifugation at 1,400 rotations per minute for 5 minutes at 4° C., the pellet was washed again with 50 ml PBS-EDTA and re-centrifuged under the same conditions. […] The cells were ready for use in experiments after overnight incubation at 37° C. […]
(§3) The plates were then assembled as the lower wall of a parallel wall flow chamber and mounted on the stage of an inverted microscope. […] The number of adherent cells resisting detachment by the elevated shear forces was determined after each interval by analysis of videotaped cell images, and was expressed as the percent of originally settled cells. […]

I-TAC = target: T2, I-TAC (Homo sapiens, UniProt O14625); assay: In vitro T cell adhesion to VCAM-1 induced by I-TAC under shear flow; settings: for Inhibition of chemokine-dependent T cell adhesion: I-TAC: 10 μg/ml peptide, T cells on VCAM-1 under shear flow; for T cell adhesion induced by I-TAC (result in words): T cells on VCAM-1
T2 construct: purchased PeproTech
T2 sequence (O14625 22-94): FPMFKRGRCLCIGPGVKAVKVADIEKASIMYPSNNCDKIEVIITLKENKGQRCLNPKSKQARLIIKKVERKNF
Description: as §1
(§4) In order to perform lysis of the erythrocytes, the red pellet was re-suspended in 5 ml of lysis-buffer (155 mM NH4Cl, 10 mM KHCO3, 0.1 mM EDTA, X0.1 PBS) for 4 minutes, followed by immediate addition of 50 ml of PBS with EDTA. Following centrifugation at 1,400 rotations per minute for 5 minutes at 4° C., the pellet was washed again with 50 ml PBS-EDTA and re-centrifuged under the same conditions. A white pellet was obtained and re-suspended in RPMI medium with 10% FCS, L-glutamine, sodium pyruvate and antibiotics at a concentration of 3×10^6 cells per ml. The cells were incubated for 2 hours at 37° C., followed by collection of the non-adherent cells. The cells were ready for use in experiments after overnight incubation at 37° C.
(§5) 10 μg/ml of human VCAM-1 and 2 μg/ml of a chemokine (intact MIG, IP-10, I-TAC, MCP-1, RANTES, SDF-1 (stromal cell-derived factor-1), BCA-1 (B lymphocyte chemoattractant-1), IL-8 (interleukin-8) or eotaxin, or heat-inactivated SDF-1 as a control) were dissolved in PBS buffered with 20 mM bicarbonate (pH 8.5), and incubated in polystyrene plates overnight at 4° C. Alternatively, 10 μg/ml of the chemokine was used, and the plates were incubated for 30 minutes at room temperature. […]
as §3

MIG = target: T3, MIG (Homo sapiens, UniProt Q07325); assay: In vitro T cell adhesion to VCAM-1 induced by MIG under shear flow; settings: for Inhibition of chemokine-dependent T cell adhesion: MIG: 10 μg/ml peptide, T cells on VCAM-1 under shear flow
T3 construct: purchased PeproTech
T3 sequence (Q07325 23-125): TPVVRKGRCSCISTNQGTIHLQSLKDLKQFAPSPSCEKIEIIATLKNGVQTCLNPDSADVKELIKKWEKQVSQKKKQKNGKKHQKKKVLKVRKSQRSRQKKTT
Description: as §1, §2, §3

MCP-1 = target: T4, MCP-1 (Homo sapiens, UniProt P13500); assay: In vitro T cell adhesion to VCAM-1 induced by MCP-1 under shear flow; settings: for Inhibition of chemokine-dependent T cell adhesion: MCP-1: 10 μg/ml peptide, T cells on VCAM-1 under shear flow; for T cell adhesion induced by MCP-1 (result in words): T cells on VCAM-1
T4 construct: purchased PeproTech
T4 sequence (P13500 24-99): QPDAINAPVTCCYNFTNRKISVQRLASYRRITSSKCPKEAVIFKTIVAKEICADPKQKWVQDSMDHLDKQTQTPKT
Description: as §1, §4, §5, §3

RANTES = target: T5, RANTES (Homo sapiens, UniProt P13501); assay: In vitro T cell adhesion to VCAM-1 induced by RANTES under shear flow; settings: for Inhibition of chemokine-dependent T cell adhesion: RANTES: 10 μg/ml peptide, T cells on VCAM-1 under shear flow; for T cell adhesion induced by RANTES (result in words): T cells on VCAM-1
T5 construct: purchased PeproTech
T5 sequence (P13501 24-91): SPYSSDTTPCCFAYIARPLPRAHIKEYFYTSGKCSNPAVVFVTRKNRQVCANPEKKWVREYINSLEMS
Description: as §1, §4, §5, §3

Eotaxin = target: T6, Eotaxin (Homo sapiens, UniProt P51671); assay: In vitro T cell adhesion to VCAM-1 induced by eotaxin under shear flow; settings: for Inhibition of chemokine-dependent T cell adhesion: Eotaxin: 10 μg/ml peptide, T cells on VCAM-1 under shear flow
T6 construct: purchased PeproTech
T6 sequence (P51671 24-97): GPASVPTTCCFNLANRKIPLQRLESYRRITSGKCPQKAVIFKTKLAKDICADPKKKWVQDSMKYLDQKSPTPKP
Description: as §1, §2, §3

SDF-1 = target: T7, SDF-1 (Homo sapiens, UniProt P48061); assay: In vitro T cell adhesion to VCAM-1 induced by SDF-1 under shear flow; settings: 10 μg/ml peptide; T cells on VCAM-1 under shear flow
T7 construct: purchased PeproTech
T7 sequence (P48061 22-89 limits assumed): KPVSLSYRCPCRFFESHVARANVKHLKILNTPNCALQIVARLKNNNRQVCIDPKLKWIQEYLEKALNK
Description: (§6) 50 ml of blood was added to 10 ml of a solution of Dextran T-500 (6% w/v) in PBS (phosphate buffer saline), and 7 ml of citrate buffer (25 grams citrate, 8 grams citric acid in 500 ml PBS). The solution was incubated for 30 minutes at 25° C. 10 ml of Ficoll 1077 was added to the bottom of the tube. The tube was then centrifuged at 2,000 rotations per minute for 30 minutes at 18° C. (with the brake mode of the centrifuge off). The interphase was collected and washed twice with 8 ml PBS with 5% FCS (fetal calf serum), followed by centrifugation at 1,400 rotations per minute for 5 minutes at 18° C. The cells were re-suspended in PBS with 5% FCS at a concentration less then 10^8 per ml. […]
(§7) In order to perform lysis of the erythrocytes, the red pellet was re-suspended in 5 ml of lysis-buffer (155 mM NH4Cl, 10 mM KHCO3, 0.1 mM EDTA, X0.1 PBS) for 4 minutes, followed by immediate addition of 50 ml of PBS with EDTA. […] The cells were ready for use in experiments after overnight incubation at 37° C. […]
as §3

IL-8 = target: T8, IL-8 (Homo sapiens, UniProt P10145); assay: In vitro T cell adhesion to VCAM-1 induced by IL-8 under shear flow; settings: 10 μg/ml peptide; T cells on VCAM-1 under shear flow
T8 construct: purchased PeproTech
T8 sequence (P10145 21-99): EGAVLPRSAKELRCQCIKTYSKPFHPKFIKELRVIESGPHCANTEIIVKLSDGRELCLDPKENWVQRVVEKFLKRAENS
Description: as §6, §7, §3

BCA-1 = target: T9, BCA-1 (Homo sapiens, UniProt O43927); assay: In vitro T cell adhesion to VCAM-1 induced by BCA-1 under shear flow; settings: 10 μg/ml peptide; T cells on VCAM-1 under shear flow
T9 sequence (O43927 23-109): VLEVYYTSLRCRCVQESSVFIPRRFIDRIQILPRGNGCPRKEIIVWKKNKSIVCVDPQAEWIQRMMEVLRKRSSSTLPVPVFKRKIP
Description: as §6, §7, §3

Sequence | Inhibition of chemokine-dependent T cell adhesion: IP-10 (IP-10) | Inhibition of chemokine-dependent T cell adhesion: I-TAC (I-TAC) | T cell adhesion induced by I-TAC (result in words) (I-TAC) | Inhibition of chemokine-dependent T cell adhesion: MIG (MIG) | T cell adhesion induced by MIG (result in words) (MIG; T cells on VCAM-1) | Inhibition of chemokine-dependent T cell adhesion: MCP-1 (MCP-1) | T cell adhesion induced by MCP-1 (result in words) (MCP-1) | Inhibition of chemokine-dependent T cell adhesion: RANTES (RANTES) | T cell adhesion induced by RANTES (result in words) (RANTES) | Inhibition of chemokine-dependent T cell adhesion: Eotaxin (Eotaxin) | Inhibition of chemokine-dependent T cell adhesion: SDF-1 (SDF-1) | Inhibition of chemokine-dependent T cell adhesion: IL-8 (IL-8) | T cell adhesion induced by IP-10 (result in words) (IP-10; T cells on VCAM-1) | T cell adhesion induced by eotaxin (result in words) (Eotaxin; T cells on VCAM-1) | Inhibition of chemokine-dependent T cell adhesion: BCA-1 (BCA-1)
LDYPIPQTVLHH [BKT-P46, reference compound] | − (− = no inhibition) | ++ (++ = 100% inhibition) | inhibited | ++ (++ = 100% inhibition) | inhibited | ++ (++ = 100% inhibition) | inhibited | ++ (++ = 100% inhibition) | inhibited | − (− = no inhibition) | − (− = no inhibition) | − (− = no inhibition) |  |  | 
SIPSHSIHSAKA [BKT-P2, reference compound] | ++ (++ = 100% inhibition) | ++ (++ = 100% inhibition) | inhibited | − (− = no inhibition) |  | ++ (++ = 100% inhibition) | inhibited | ++ (++ = 100% inhibition) | inhibited | ++ (++ = 100% inhibition) | − (− = no inhibition) |  | inhibited | inhibited | − (− = no inhibition)
